According to the supplement of paper PMC9112550, “Optimization of the antimicrobial peptide Bac7 by deep mutational scanning” (BMC Biology, 2022):

System: Escherichia coli TOP10
Test: shrunken log2 fold change of peptide-encoding DNA abundance (4.5 h post-induction vs induction); higher = less antimicrobial activity (less host growth inhibition)
Settings: time post-induction: 4.5 h; library: site-saturation at positions 5, 18, 19, 20
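Further: peptides expressed intracellularly from a pBAD plasmid library in pooled LB shake-flask culture, induced with 0.3% L-arabinose, DNA abundance read by NGS, three biological replicates, DESeq2 with apeglm shrinkage.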

| Sequence | shrunken log2 fold change |
| --- | --- |
| RRIRSRPPRLPRPRPRPCMHPRP | -0.514 |
| RRIRDRPPRLPRPRPRPANWPRP | 0.239 |
| RRIRFRPPRLPRPRPRPGREPRP | 0.0157 |
| RRIRGRPPRLPRPRPRPWDTPRP | 0.194 |
| RRIRMRPPRLPRPRPRPGYMPRP | 0.0502 |
| RRIRTRPPRLPRPRPRPKSSPRP | -0.0371 |
| RRIRPRPPRLPRPRPRPSYCPRP | -0.387 |
| RRIRTRPPRLPRPRPRPWQNPRP | -0.0181 |
| RRIRTRPPRLPRPRPRPCDHPRP | -0.0753 |
| RRIRWRPPRLPRPRPRPYNYPRP | -0.331 |
| RRIRFRPPRLPRPRPRPDYCPRP | -0.127 |
| RRIRFRPPRLPRPRPRPKKYPRP | -0.242 |
| RRIRVRPPRLPRPRPRPGPMPRP | 0.189 |
| RRIRRRPPRLPRPRPRPMWLPRP | 0.105 |
| RRIRDRPPRLPRPRPRPLFCPRP | 0.208 |
| RRIRLRPPRLPRPRPRPVMGPRP | 0.256 |
| RRIRIRPPRLPRPRPRPRTFPRP | -0.143 |
| RRIRSRPPRLPRPRPRPPRKPRP | 0.73 |
| RRIRIRPPRLPRPRPRPLHQPRP | -0.121 |
| RRIRCRPPRLPRPRPRPCTYPRP | -1.19 |
| RRIRVRPPRLPRPRPRPFFMPRP | -0.339 |
| RRIRYRPPRLPRPRPRPAPAPRP | 0.0272 |
| RRIRRRPPRLPRPRPRPNPKPRP | 0.172 |
| RRIRYRPPRLPRPRPRPTSLPRP | -0.0466 |
| RRIRGRPPRLPRPRPRPEVMPRP | 1.41 |
| RRIRIRPPRLPRPRPRPYMQPRP | -0.695 |
| RRIRMRPPRLPRPRPRPCLFPRP | -0.155 |

| Sequence | shrunken log2 fold change |
| --- | --- |
| RRIRRRPPRLPRPRPRPAMMPRP | 0.163 |
| RRIRTRPPRLPRPRPRPGYQPRP | -0.0553 |
| RRIRFRPPRLPRPRPRPNRCPRP | -0.717 |
| RRIRTRPPRLPRPRPRPMQEPRP | -0.0701 |
| RRIRSRPPRLPRPRPRPWFLPRP | -0.565 |
| RRIRRRPPRLPRPRPRPYYFPRP | -0.139 |
| RRIRQRPPRLPRPRPRPFLGPRP | -0.38 |
| RRIRNRPPRLPRPRPRPDGAPRP | 0.0931 |
| RRIRVRPPRLPRPRPRPYGPPRP | -0.041 |
| RRIRSRPPRLPRPRPRPDMAPRP | -0.0366 |
| RRIRIRPPRLPRPRPRPCFDPRP | -0.493 |
| RRIRFRPPRLPRPRPRPAAEPRP | 0.558 |
| RRIRNRPPRLPRPRPRPFLAPRP | -0.164 |
| RRIRARPPRLPRPRPRPRDMPRP | 1.52 |
| RRIRCRPPRLPRPRPRPRVPPRP | -0.0115 |
| RRIRSRPPRLPRPRPRPSFNPRP | -0.644 |
| RRIRERPPRLPRPRPRPWKGPRP | -0.0443 |
| RRIRTRPPRLPRPRPRPLRCPRP | 0.108 |
| RRIRVRPPRLPRPRPRPKYQPRP | -0.876 |
| RRIRWRPPRLPRPRPRPNHKPRP | -0.37 |
| RRIRLRPPRLPRPRPRPHGMPRP | -0.177 |
| RRIRKRPPRLPRPRPRPLLGPRP | 0.628 |
| RRIRERPPRLPRPRPRPYHWPRP | -0.0488 |
| RRIRRRPPRLPRPRPRPTMRPRP | 0.667 |
| RRIRHRPPRLPRPRPRPVDSPRP | -0.175 |
| RRIRCRPPRLPRPRPRPCFTPRP | -0.552 |
| RRIRYRPPRLPRPRPRPENTPRP | -0.879 |
